IntAct's records for PubMed 31477895

B1: Ubiquitin carboxyl-terminal hydrolase 15 (Homo sapiens), Q9Y4E8 (parent)
chain: MAEGGAADLDTQRSDIATLLKTSLRKGDTWYLVDSRWFKQWKKYVGFDSWDKYQMGDQNVYPGPIDNSGLLKDGDAQSLKEHLIDELDYILLPTEGWNKLVSWYTLMEGQEPIARKVVEQGMFVKHCKVEVYLTELKLCENGNMNNVVTRRFSKADTIDTIEKEIRKIFSIPDEKETRLWNKYMSNTFEPLNKPDSTIQDAGLYQGQVLVIEQKNEDGTWPRGPSTPKSPGASNFSTLPKISPSSLSNNYNNMNNRNVKNSNYCLPSYTAYKNYDYSEPGRNNEQPGLCGLSNLGNTCFMNSAIQCLSNTPPLTEYFLNDKYQEELNFDNPLGMRGEIAKSYAELIKQMWSGKFSYVTPRAFKTQVGRFAPQFSGYQQQDCQELLAFLLDGLHEDLNRIRKKPYIQLKDADGRPDKVVAEEAWENHLKRNDSIIVDIFHGLFKSTLVCPECAKISVTFDPFCYLTLPLPMKKERTLEVYLVRMDPLTKPMQYKVVVPKIGNILDLCTALSALSGIPADKMIVTDIYNHRFHRIFAMDENLSSIMERDDIYVFEININRTEDTEHVIIPVCLREKFRHSSYTHHTGSSLFGQPFLMAVPRNNTEDKLYNLLLLRMCRYVKISTETEETEGSLHCCKDQNINGNGPNGIHEEGSPSEMETDEPDDESSQDQELPSENENSQSEDSVGGDNDSENGLCTEDTCKGQLTGHKKRLFTFQFNNLGNTDINYIKDDTRHIRFDDRQLRLDERSFLALDWDPDLKKRYFDENAAEDFEKHESVEYKPPKKPFVKLKDCIELFTTKEKLGAEDPWYCPNCKEHQQATKKLDLWSLPPVLVVHLKRFSYSRYMRDKLDTLVDFPINDLDMSEFLINPNAGPCRYNLIAVSNHYGGMGGGHYTAFAKNKDDGKWYYFDDSSVSTASEDQIVSKAAYVLFYQRQDTFSGTGFFPLDRETKGASAATGIPLESDEDSNDNDNDIENENCMHTN

Variants of: B1
Conditions: with syvn1_human SYVN1, Q86TM6
syvn1_human SYVN1, Q86TM6, sequence (Q86TM6 whole entry): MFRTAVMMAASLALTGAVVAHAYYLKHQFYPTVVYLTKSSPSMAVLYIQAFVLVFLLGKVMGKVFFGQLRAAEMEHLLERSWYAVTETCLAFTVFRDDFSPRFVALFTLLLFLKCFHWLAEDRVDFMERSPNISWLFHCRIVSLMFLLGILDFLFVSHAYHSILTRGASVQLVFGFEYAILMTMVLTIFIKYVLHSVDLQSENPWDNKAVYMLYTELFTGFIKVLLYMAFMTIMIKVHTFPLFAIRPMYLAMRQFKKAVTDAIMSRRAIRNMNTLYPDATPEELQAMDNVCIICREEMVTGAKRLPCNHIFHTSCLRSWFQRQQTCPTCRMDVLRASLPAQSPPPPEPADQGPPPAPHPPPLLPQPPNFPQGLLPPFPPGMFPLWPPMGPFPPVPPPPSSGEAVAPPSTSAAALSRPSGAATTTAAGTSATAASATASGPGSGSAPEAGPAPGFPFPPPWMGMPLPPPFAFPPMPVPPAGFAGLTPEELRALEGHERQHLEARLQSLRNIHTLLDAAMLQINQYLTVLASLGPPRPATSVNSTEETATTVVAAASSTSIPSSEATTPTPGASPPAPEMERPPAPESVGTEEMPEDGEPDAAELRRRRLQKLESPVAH

| Variant | effect of a mutation on the interaction |
| --- | --- |
| K21R | with no effect |
| K228R | with no effect |
| K154R | with no effect |
